The results in this text go back to PMC4132743 (Nucleic Acids Research, 2014).

Series [1] concerns the molecule itself. In words: SEC; Superdex 75 or Superdex 200 10/300 GL in buffer A (20 mM Tris-HCl pH 7.5, 40 mM NaCl, 5% glycerol), against molecular mass standards. In general terms: In gel filtration, larger molecules generally elute earlier.
Series [2] concerns the molecule itself. As to the kind of experiment: negative-staining electron microscopy; purified DnaT alone in buffer A (also after DNase I), 0.7% uranyl formate, FEI Tecnai F20.
Series [3] deals with T1, DnaT (wt, full length) (Escherichia coli K12, UniProt P0A8J2 1-179).
T1 sequence: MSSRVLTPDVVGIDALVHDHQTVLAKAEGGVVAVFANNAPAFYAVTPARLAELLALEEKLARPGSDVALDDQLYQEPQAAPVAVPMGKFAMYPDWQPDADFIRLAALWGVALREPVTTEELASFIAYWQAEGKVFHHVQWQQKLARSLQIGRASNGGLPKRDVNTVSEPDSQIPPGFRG
In words: fluorescence polarization; apparent; Hill h=1.8±0.2; Buffer A: 20 mM Tris-HCl pH 7.5, 40 mM NaCl, 5% v/v glycerol, 20 C; FPA 200 nM 5'-FAM DNA, Hill fit; EMSA 30 min at 20 C, gels in 0.5x TBE at 4 C. The following applies: protein: recombinant; tags: His-MBP removed by TEV; label: 5'-FAM. For orientation: Polarisation of emitted light reports the rotation of a fluorescent probe.

Series [4] concerns the target T1, DnaT (wt, full length). As to the kind of experiment: fluorescence polarization; apparent; Hill h=2.0±0.2; Buffer A: 20 mM Tris-HCl pH 7.5, 40 mM NaCl, 5% v/v glycerol, 20 C; FPA 200 nM 5'-FAM DNA, Hill fit; EMSA 30 min at 20 C, gels in 0.5x TBE at 4 C. The settings on record: protein: recombinant; tags: His-MBP removed by TEV; label: 5'-FAM.
Series [5] concerns the target T1, DnaT (wt, full length). As to the kind of experiment: fluorescence polarization; apparent; Hill h=2.5±0.6; Buffer A: 20 mM Tris-HCl pH 7.5, 40 mM NaCl, 5% v/v glycerol, 20 C; FPA 200 nM 5'-FAM DNA, Hill fit; EMSA 30 min at 20 C, gels in 0.5x TBE at 4 C. The settings on record: protein: recombinant; tags: His-MBP removed by TEV; label: 5'-FAM.
Series [6] has as its target T1, DnaT (wt, full length). As to the kind of experiment: fluorescence polarization; apparent; Hill h=2.3±0.2; Buffer A: 20 mM Tris-HCl pH 7.5, 40 mM NaCl, 5% v/v glycerol, 20 C; FPA 200 nM 5'-FAM DNA, Hill fit; EMSA 30 min at 20 C, gels in 0.5x TBE at 4 C. The settings on record: protein: recombinant; tags: His-MBP removed by TEV; label: 5'-FAM.
The target in series [7] is T1, DnaT (wt, full length). In words: fluorescence polarization; apparent; Hill h=2.3±0.3; Buffer A: 20 mM Tris-HCl pH 7.5, 40 mM NaCl, 5% v/v glycerol, 20 C; FPA 200 nM 5'-FAM DNA, Hill fit; EMSA 30 min at 20 C, gels in 0.5x TBE at 4 C. The settings on record: protein: recombinant; tags: His-MBP removed by TEV; label: 5'-FAM.
Another series concerns the target T2, DnaT84-153 (Escherichia coli K12, UniProt P0A8J2 84-153).
T2 sequence: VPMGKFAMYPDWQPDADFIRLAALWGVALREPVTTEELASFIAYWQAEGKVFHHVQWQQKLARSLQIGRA
In words: fluorescence polarization; apparent; Hill h=2.1±0.2; Buffer A: 20 mM Tris-HCl pH 7.5, 40 mM NaCl, 5% v/v glycerol, 20 C; FPA 200 nM 5'-FAM DNA, Hill fit; EMSA 30 min at 20 C, gels in 0.5x TBE at 4 C. The following applies: protein: recombinant; tags: His-MBP removed by TEV; label: 5'-FAM.

The target of series [8] is T1, DnaT (wt, full length). In words: fluorescence polarization; apparent; Hill h=3.6±0.3; Buffer A: 20 mM Tris-HCl pH 7.5, 40 mM NaCl, 5% v/v glycerol, 20 C; FPA 200 nM 5'-FAM DNA, Hill fit; EMSA 30 min at 20 C, gels in 0.5x TBE at 4 C. The following applies: protein: recombinant; tags: His-MBP removed by TEV; label: 5'-FAM.
The target in the next series is T3, DnaT84-179 (Escherichia coli K12, UniProt P0A8J2 84-179).
T3 sequence: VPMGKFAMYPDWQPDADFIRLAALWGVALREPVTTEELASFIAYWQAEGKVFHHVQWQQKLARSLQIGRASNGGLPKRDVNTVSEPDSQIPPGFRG
In words: fluorescence polarization; apparent; Hill h=2.7±0.2; Buffer A: 20 mM Tris-HCl pH 7.5, 40 mM NaCl, 5% v/v glycerol, 20 C; FPA 200 nM 5'-FAM DNA, Hill fit; EMSA 30 min at 20 C, gels in 0.5x TBE at 4 C. The following applies: protein: recombinant; tags: His-MBP removed by TEV; chain copies: 2; label: 5'-FAM.

Series [9] deals with T1, DnaT (wt, full length). In words: fluorescence polarization; apparent; Hill h=1.6±0.2; Buffer A: 20 mM Tris-HCl pH 7.5, 40 mM NaCl, 5% v/v glycerol, 20 C; FPA 200 nM 5'-FAM DNA, Hill fit; EMSA 30 min at 20 C, gels in 0.5x TBE at 4 C. The settings on record: protein: recombinant; tags: His-MBP removed by TEV; label: 5'-FAM.
Series [10] deals with T1, DnaT (wt, full length). As to the kind of experiment: fluorescence polarization; apparent; Hill h=1.8±0.3; Buffer A: 20 mM Tris-HCl pH 7.5, 40 mM NaCl, 5% v/v glycerol, 20 C; FPA 200 nM 5'-FAM DNA, Hill fit; EMSA 30 min at 20 C, gels in 0.5x TBE at 4 C. The settings on record: protein: recombinant; tags: His-MBP removed by TEV; label: 5'-FAM.
Series [11] has as its target T1, DnaT (wt, full length). In words: EMSA; 20 uM DNA; Buffer A: 20 mM Tris-HCl pH 7.5, 40 mM NaCl, 5% v/v glycerol, 20 C; FPA 200 nM 5'-FAM DNA, Hill fit; EMSA 30 min at 20 C, gels in 0.5x TBE at 4 C. The following applies: protein: recombinant; tags: His-MBP removed by TEV.

Changes are numbered by the printed parent chain. Names and notes keep the numbering of the source.

B1: DnaT F135A (natural protein, Escherichia coli (strain K12), UniProt P0A8J2 1-179, looked up)
chain: T1 sequence with F135A
notes: E. coli K12 DnaT, made from the wt-DnaT vector by site-directed mutagenesis; source: E. coli BL21 (DE3), purified as the wild type; not shown: His, N-terminal, cleaved; MBP, N-terminal, cleaved
B1: the binding result in series [1] was “binds”.

B2: DnaT K133A (natural protein, Escherichia coli (strain K12), UniProt P0A8J2 1-179, looked up)
chain: T1 sequence with K133A
notes: as for B1
B2: in [1], the binding result was “binds”.

B3: DnaT Y127A (natural protein, Escherichia coli (strain K12), UniProt P0A8J2 1-179, looked up)
chain: T1 sequence with Y127A
notes: as for B1
As for B3, in series [1], the binding result is listed as “binds”.

B4: DnaT (full-length, wild type) (natural protein, Escherichia coli (strain K12), UniProt P0A8J2 1-179, looked up)
chain: T1 sequence
notes: E. coli K12 DnaT, amplified from genomic DNA; also called wt-DnaT; DnaT-FL; source: E. coli BL21 (DE3), purified (Ni-chelating resin, TEV digestion, HisTrap HP, HiTrap DEAE FF, Superdex 200); not shown: His, N-terminal, cleaved; MBP, N-terminal, cleaved
Regarding B4, the binding result in series [2] is given as “binds”.

B5: DnaT Y127A/W128A double mutant (natural protein, Escherichia coli (strain K12), UniProt P0A8J2 1-179, looked up)
chain: T1 sequence with Y127A, W128A
notes: as for B1
As for B5, in series [1], the binding result is “binds”.

B6: DnaT K143A (natural protein, Escherichia coli (strain K12), UniProt P0A8J2 1-179, looked up)
chain: T1 sequence with K143A
notes: as for B1
As to B6, in series [1], the binding result is recorded as “binds”.

B7: DnaT W128A (natural protein, Escherichia coli (strain K12), UniProt P0A8J2 1-179, looked up)
chain: T1 sequence with W128A
notes: as for B1
Consider B7, for which the binding result in series [1] was “binds”.

B8: DnaT R146A (natural protein, Escherichia coli (strain K12), UniProt P0A8J2 1-179, looked up)
chain: T1 sequence with R146A
notes: as for B1
Turning to B8, in series [1], the binding result is “binds”. For AAAAAAAAAAAAAAAAAAAAAAAAAAAAAA (ssDNA) [5F-dA30], in the series with DnaT (wt, full length) [3], the Kd was 39.2 ± 3.85 µM. TTTTTTTTTTTTTTT (ssDNA) [5F-dT15]: the Kd with DnaT (wt, full length) [4] was 16.2 ± 1.63 µM. AAAAAAAAAAAAAAA (ssDNA) [5F-dA15]: in the series with DnaT (wt, full length) [5], the Kd stood at 46.7 ± 6.87 µM. Regarding TGGGTGGGTGGGTGGGTGGGTGGGTGGG (ssDNA) [5F-d(TGGG)7], in the series with DnaT (wt, full length) [6], the Kd came out at 0.597 ± 0.02 µM. CACACACACACACACACACACACACACACA (ssDNA) [5F-d(CA)15]: the Kd with DnaT (wt, full length) [7] came out at 31.5 ± 3.6 µM.

B9: DnaT^84–153 (N- and C-terminal-truncated DnaT, recombinant fragment) (domain or fragment, Escherichia coli (strain K12), UniProt P0A8J2 84-153, looked up)
chain: T2 sequence
notes: Dimer in solution by size-exclusion chromatography (see the N row); source: E. coli BL21 (DE3), purified (Ni-chelating resin, TEV digestion, HisTrap HP, HiTrap DEAE FF, Superdex 200); not shown: His, N-terminal, cleaved; MBP, N-terminal, cleaved
For orientation: stoichiometry N means a count of units in the complex or per binding partner. For B9, in series [1], the “stoichiometry N” value was determined as 2.

B10: DnaT^84–179 (N-terminal-truncated DnaT) (domain or fragment, Escherichia coli (strain K12), UniProt P0A8J2 84-179, looked up)
chain: T3 sequence
notes: as for B9
Regarding B10, the “stoichiometry N” value in [1] came to 2. On to TTTTTTTTTTTTTTTTTTTTTTTTTTTTTT (ssDNA) [5F-dT30], for which the Kd worked out at 27.1 ± 2.3 µM in the series with DnaT84-153; 12.9 ± 0.57 µM with DnaT (wt, full length) [8]; 9.87 ± 0.32 µM with DnaT84-179. For TGTGTGTGTGTGTGTGTGTGTGTGTGTGTG (ssDNA) [5F-d(TG)15], the Kd with DnaT (wt, full length) [9] was 1.3 ± 0.11 µM. Take TGGTGGTGGTGGTGGTGGTGGTGGTGGTGG (ssDNA) [5F-d(TGG)10]: the Kd in the series with DnaT (wt, full length) [10] amounted to 2.76 ± 0.28 µM. As for TTTTTTTTTT (ssDNA) [dT10], the binding result with DnaT (wt, full length) [11] is reported as “binds”.
